# Assay results taken from patent publication US20150218534A1, “MODIFIED DNA POLYMERASE” (TOYOBO CO., LTD., priority 2012, published 2015).
# Test system: human genomic DNA (about 1.3 kb) with dUTP added
# Experiment: Evaluation of uracil (dUTP) sensitivity by PCR with dUTP added to the reaction
# Type: biochemical
# Settings: dUTP added to PCR (FIGS. 3 and 4)
# Method: The uracil sensitivity of the modified DNA polymerase of the present invention can be evaluated by PCR. For example, a dUTP solution is added at a final concentration of 0.5 μM to 200 μM to a common PCR reaction solution containing DNA as a template, a buffer, magnesium, dNTPs, primers, and a DNA polymerase to be evaluated, and thermal cycling is performed. After the reaction, the presence or absence of PCR products is confirmed by ethidium bromide-stained agarose electrophoresis, and the uracil sensitivity can be evaluated by the concentration of accepted dUTP. With a DNA polymerase having high uracil sensitivity, the extension reaction is inhibited by the addition of a small amount of dUTP, and PCR products cannot be confirmed. With a DNA polymerase having low uracil sensitivity, gene amplification by PCR can be confirmed without problem, even if a high concentration of dUTP is added. The modified DNA polymerase with low uracil sensitivity in the present invention refers to a DNA polymerase such that when optimum thermal cycling is performed using any primers and DNA as a template in a reaction buffer optimum for the enzyme, even if a high concentration of dUTP is added, an extension reaction is not inhibited and PCR products can be confirmed, compared to wild-type DNA polymerase, which has no mutation.
# More specifically, 10× PCR buffer included in KOD-Plus-Ver. 2 (produced by Toyobo Co. Ltd.) or 10× PCR buffer included in Pfu DNA Polymerase (produced by Agilent) is used; dUTP (produced by Roche) is added to 50 μl of individual reaction solutions containing 1× PCR buffer, 1.5 mM MgSO4, dNTPs (dATP, dTTP, dCTP, and dGTP) in an amount of 0.2 mM, primers represented by SEQ ID NOs: 25 and 26 in an amount of 15 pmol for amplifying about 1.3 kb, 10 ng of human genomic DNA (produced by Roche), and 1 U of each respective enzyme, to final concentrations of 0.5, 5, 50, 100, and 200 μM. PCR is performed using a GeneAmp PCR system 9700 (Applied Biosystems) on the following schedule; preliminary reaction at 94° C. for 30 seconds, followed by 30 cycles, each cycle consisting of 98° C. for 10 seconds, 65° C. for 30 seconds, and 68° C. for 1 minute and 30 seconds. After the completion of each individual reaction, 5 μl of each of the resulting reaction solutions is subjected to agarose electrophoresis, followed by ethidium bromide staining. The uracil sensitivity can be evaluated by confirming amplified DNA fragments of about 1.3 kb under ultraviolet irradiation.
# PCR was performed by the following method to evaluate uracil sensitivity. For PCR, components included in KOD-Plus-Ver. 2 (produced by Toyobo Co. Ltd.) were used. dUTP (produced by Roche) was added to 50 μl of individual reaction solutions containing 1× PCR buffer, 1.5 mM MgSO4, dNTPs (dATP, dTTP, dCTP, dGTP) in an amount of 0.2 mM, primers represented by SEQ ID NOs: 25 and 26 in an amount of 15 pmol for amplifying about 1.3 kb, 10 ng of human genomic DNA (produced by Roche), and 1 U of each respective enzyme, to final concentrations of 0.5, 5, 50, 100, and 200 μM. PCR was performed using a GeneAmp PCR system 9700 (produced by Applied Biosystems) on the following schedule: preliminary reaction at 94° C. for 30 seconds, followed by 30 cycles, each cycle consisting of 98° C. for 10 seconds, 65° C. for 30 seconds, and 68° C. for 1 minute and 30 seconds. After the completion of each individual reaction, 5 μl of each of the resulting reaction solutions was subjected to agarose electrophoresis, followed by ethidium bromide staining. Under ultraviolet irradiation, amplified DNA fragments of about 1.3 kb were confirmed. FIGS. 3, 4, 7, and 8 show the results.
row,Molecule,"sensitivity to dUTP / amount of amplification, comparison with single mutants or wild type"
1,"KOD N210D: modified KOD DNA polymerase with N210D, deficient in 3′-5′ exonuclease activity (exo(−)) (protein, listed as Thermococcus kodakaraensis) MILDTDYITEDGKPVIRIFKKENGEFKIEYDRTFEPYFYALLKDDSAIEEVKKITAERHGTVVTVKRVEKVQKKFLGRPVEVWKLYFTHPQDVPAIRDKIREHPAVIDIYEYDIPFAKRYLIDKGLVPMEGDEELKMLAFDIETLYHEGEEFAEGPILMISYADEEGARVITWKNVDLPYVDVVSTEREMIKRFLRVVKEKDPDVLITYDGDNFDFAYLKKRCEKLGINFALGRDGSEPKIQRMGDRFAVEVKGRIHFDLYPVIRRTINLPTYTLEAVYEAVFGQPKEKVYAEEITTAWETGENLERVARYSMEDAKVTYELGKEFLPMEAQLSRLIGQSLWDVSRSSTGNLVEWFLLRKAYERNELAPNKPDEKELARRRQSYEGGYVKEPERGLWENIVYLDFRSLYPSIIITHNVSPDTLNREGCKEYDVAPQVGHRFCKDFPGFIPSLLGDLLEERQKIKKKMKATIDPIERKLLDYRQRAIKILANSYYGYYGYARARWYCKECAESVTAWGREYITMTIKEIEEKYGFKVIYSDTDGFFATIPGADAETVKKKAMEFLKYINAKLPGALELEYEGFYKRGFFVTKKKYAVIDEEGKITTRGLEIVRRDWSEIAKETQARVLEALLKDGDVEKAVRIVKEVTEKLSKYEVPPEKLVIHEQITRDLKDYKATGPHVAVAKRLAARGVKIRPGTVISYIVLKGSGRIGDRAIPFDEFDPTKHKYDAEYYIENQVLPAVERILRAFGYRKEDLRYQKTRQVGLSAWLKPKGT",less sensitive to dUTP than the wild-type DNA polymerase
2,"KOD D141A/E143A: modified KOD DNA polymerase with D141A and E143A, deficient in 3′-5′ exonuclease activity (exo(−)) (protein, listed as Thermococcus kodakaraensis) MILDTDYITEDGKPVIRIFKKENGEFKIEYDRTFEPYFYALLKDDSAIEEVKKITAERHGTVVTVKRVEKVQKKFLGRPVEVWKLYFTHPQDVPAIRDKIREHPAVIDIYEYDIPFAKRYLIDKGLVPMEGDEELKMLAFAIATLYHEGEEFAEGPILMISYADEEGARVITWKNVDLPYVDVVSTEREMIKRFLRVVKEKDPDVLITYNGDNFDFAYLKKRCEKLGINFALGRDGSEPKIQRMGDRFAVEVKGRIHFDLYPVIRRTINLPTYTLEAVYEAVFGQPKEKVYAEEITTAWETGENLERVARYSMEDAKVTYELGKEFLPMEAQLSRLIGQSLWDVSRSSTGNLVEWFLLRKAYERNELAPNKPDEKELARRRQSYEGGYVKEPERGLWENIVYLDFRSLYPSIIITHNVSPDTLNREGCKEYDVAPQVGHRFCKDFPGFIPSLLGDLLEERQKIKKKMKATIDPIERKLLDYRQRAIKILANSYYGYYGYARARWYCKECAESVTAWGREYITMTIKEIEEKYGFKVIYSDTDGFFATIPGADAETVKKKAMEFLKYINAKLPGALELEYEGFYKRGFFVTKKKYAVIDEEGKITTRGLEIVRRDWSEIAKETQARVLEALLKDGDVEKAVRIVKEVTEKLSKYEVPPEKLVIHEQITRDLKDYKATGPHVAVAKRLAARGVKIRPGTVISYIVLKGSGRIGDRAIPFDEFDPTKHKYDAEYYIENQVLPAVERILRAFGYRKEDLRYQKTRQVGLSAWLKPKGT",less sensitive to dUTP than the wild-type DNA polymerase
3,"KOD I142R: modified KOD DNA polymerase with I142R, deficient in 3′-5′ exonuclease activity (exo(−)) (protein, listed as Thermococcus kodakaraensis) MILDTDYITEDGKPVIRIFKKENGEFKIEYDRTFEPYFYALLKDDSAIEEVKKITAERHGTVVTVKRVEKVQKKFLGRPVEVWKLYFTHPQDVPAIRDKIREHPAVIDIYEYDIPFAKRYLIDKGLVPMEGDEELKMLAFDRETLYHEGEEFAEGPILMISYADEEGARVITWKNVDLPYVDVVSTEREMIKRFLRVVKEKDPDVLITYNGDNFDFAYLKKRCEKLGINFALGRDGSEPKIQRMGDRFAVEVKGRIHFDLYPVIRRTINLPTYTLEAVYEAVFGQPKEKVYAEEITTAWETGENLERVARYSMEDAKVTYELGKEFLPMEAQLSRLIGQSLWDVSRSSTGNLVEWFLLRKAYERNELAPNKPDEKELARRRQSYEGGYVKEPERGLWENIVYLDFRSLYPSIIITHNVSPDTLNREGCKEYDVAPQVGHRFCKDFPGFIPSLLGDLLEERQKIKKKMKATIDPIERKLLDYRQRAIKILANSYYGYYGYARARWYCKECAESVTAWGREYITMTIKEIEEKYGFKVIYSDTDGFFATIPGADAETVKKKAMEFLKYINAKLPGALELEYEGFYKRGFFVTKKKYAVIDEEGKITTRGLEIVRRDWSEIAKETQARVLEALLKDGDVEKAVRIVKEVTEKLSKYEVPPEKLVIHEQITRDLKDYKATGPHVAVAKRLAARGVKIRPGTVISYIVLKGSGRIGDRAIPFDEFDPTKHKYDAEYYIENQVLPAVERILRAFGYRKEDLRYQKTRQVGLSAWLKPKGT",less sensitive to dUTP than the wild-type DNA polymerase
